Key:
Assay in all cases: co-expression in Tni insect cells, pulldown via Twin Strep tag on G-CSF, SDS-PAGE
[1] = molecular target: T1, G-CSFR(CRH)E site II design 35 with N-terminal His tag (human)
T1 construct: also called design #35 G-CSFR(CRH)E
T1 chain: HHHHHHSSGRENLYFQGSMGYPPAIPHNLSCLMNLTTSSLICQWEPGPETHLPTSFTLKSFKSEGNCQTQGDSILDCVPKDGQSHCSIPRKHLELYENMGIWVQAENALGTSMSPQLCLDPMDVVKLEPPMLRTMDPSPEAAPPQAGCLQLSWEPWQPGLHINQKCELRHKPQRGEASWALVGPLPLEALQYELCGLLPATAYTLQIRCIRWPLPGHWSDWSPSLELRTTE

[2] = molecular target: T2, G-CSFR(CRH)E site II design 15 with N-terminal His tag (human)
T2 construct: also called design #15 G-CSFR(CRH)E
T2 chain: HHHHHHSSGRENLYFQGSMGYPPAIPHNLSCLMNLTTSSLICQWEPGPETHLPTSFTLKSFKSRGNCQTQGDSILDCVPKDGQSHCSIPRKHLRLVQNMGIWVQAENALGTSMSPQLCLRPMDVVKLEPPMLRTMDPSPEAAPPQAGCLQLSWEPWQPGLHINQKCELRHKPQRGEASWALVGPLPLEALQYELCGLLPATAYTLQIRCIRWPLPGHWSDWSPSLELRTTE

[3] = molecular target: T3, G-CSFR(CRH)E site II design 30 with N-terminal His tag (human, UniProt Q99062 120-331)
T3 construct: also called design #30 G-CSFR(CRH)E
T3 chain: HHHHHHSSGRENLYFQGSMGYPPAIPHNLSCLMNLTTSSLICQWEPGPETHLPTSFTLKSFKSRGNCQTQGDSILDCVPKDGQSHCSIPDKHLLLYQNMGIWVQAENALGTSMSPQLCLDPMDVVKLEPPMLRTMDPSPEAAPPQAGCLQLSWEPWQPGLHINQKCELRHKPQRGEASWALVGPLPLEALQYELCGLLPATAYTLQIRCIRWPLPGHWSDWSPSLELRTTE

[4] = molecular target: T4, G-CSFR(CRH)E site II design 34 with N-terminal His tag (human, UniProt Q99062 120-331)
T4 construct: also called design #34 G-CSFR(CRH)E
T4 chain: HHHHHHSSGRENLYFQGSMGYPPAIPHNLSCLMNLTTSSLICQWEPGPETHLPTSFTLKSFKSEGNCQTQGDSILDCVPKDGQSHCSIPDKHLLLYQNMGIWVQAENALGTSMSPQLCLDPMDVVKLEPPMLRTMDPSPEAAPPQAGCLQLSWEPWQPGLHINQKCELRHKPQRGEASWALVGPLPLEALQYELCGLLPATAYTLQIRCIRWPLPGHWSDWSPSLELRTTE

[5] = molecular target: T5, G-CSFR(CRH)E site II design 9 with N-terminal His tag (human)
T5 construct: also called design #9 G-CSFR(CRH)E
T5 chain: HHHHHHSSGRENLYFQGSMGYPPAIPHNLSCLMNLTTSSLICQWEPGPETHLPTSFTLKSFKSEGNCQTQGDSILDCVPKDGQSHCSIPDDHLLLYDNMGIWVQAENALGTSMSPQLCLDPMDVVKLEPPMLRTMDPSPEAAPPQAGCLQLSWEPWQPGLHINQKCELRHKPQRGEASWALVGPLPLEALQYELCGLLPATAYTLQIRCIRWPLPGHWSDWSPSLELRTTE

[6] = molecular target: T6, G-CSFR(Ig-CRH)E combination design 402 with N-terminal His tag (human, UniProt Q99062 25-331)
T6 construct: also called design 402 engineered receptor
T6 chain: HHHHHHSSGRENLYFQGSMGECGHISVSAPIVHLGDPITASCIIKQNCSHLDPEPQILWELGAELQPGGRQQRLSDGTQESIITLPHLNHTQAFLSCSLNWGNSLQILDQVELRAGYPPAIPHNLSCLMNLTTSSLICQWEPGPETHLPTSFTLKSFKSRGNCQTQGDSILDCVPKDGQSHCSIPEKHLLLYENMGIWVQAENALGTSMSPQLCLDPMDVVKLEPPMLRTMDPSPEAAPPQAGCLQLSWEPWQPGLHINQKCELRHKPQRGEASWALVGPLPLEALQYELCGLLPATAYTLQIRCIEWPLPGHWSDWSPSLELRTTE

[7] = molecular target: T7, G-CSFR(Ig-CRH)E combination design 401 with N-terminal His tag (human, UniProt Q99062 25-331)
T7 construct: also called design 401 engineered receptor
T7 chain: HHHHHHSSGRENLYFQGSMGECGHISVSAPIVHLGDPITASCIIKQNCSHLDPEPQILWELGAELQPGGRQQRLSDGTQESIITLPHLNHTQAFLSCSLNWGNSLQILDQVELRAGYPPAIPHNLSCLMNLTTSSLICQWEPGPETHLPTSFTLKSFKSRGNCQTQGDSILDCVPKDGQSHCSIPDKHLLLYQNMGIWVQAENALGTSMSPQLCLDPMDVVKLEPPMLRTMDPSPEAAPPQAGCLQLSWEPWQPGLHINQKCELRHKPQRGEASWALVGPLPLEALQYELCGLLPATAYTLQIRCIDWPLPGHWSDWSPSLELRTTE

[8] = molecular target: T8, G-CSFR(CRH)E site II design 8 with N-terminal His tag (human)
T8 construct: also called design #8 G-CSFR(CRH)E
T8 chain: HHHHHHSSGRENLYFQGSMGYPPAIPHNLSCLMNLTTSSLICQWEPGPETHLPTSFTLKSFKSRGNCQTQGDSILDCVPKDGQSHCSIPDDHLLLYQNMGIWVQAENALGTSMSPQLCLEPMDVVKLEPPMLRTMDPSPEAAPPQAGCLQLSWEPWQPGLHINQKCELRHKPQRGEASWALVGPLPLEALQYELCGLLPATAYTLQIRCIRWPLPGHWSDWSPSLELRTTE

Measured: binding result

B1: WT G-CSF with C-terminal Twin Strep tag (ligand)
chain: not shown
notes: also called G-CSFWT
no binding: [1] | [2] | [3] | [4] | [5] | [6] | [7] | [8]
